Experimental data: patent publication US20190367626A1
Numbering of substitutions follows the chain as printed.

B1: HC0LC0 (antibody, human IgG1, kappa, V domains shown)
VH: QVQLQQSGPELVKPGASVKISCKASGYIFTNNDMNWVKQRPGQGLEWIGGIDPGDGRTKYNEKFKGKATLTADKFSNTVYMQLSSLTSENSAVYFCGRGGYEFGIDYWGQGTSVTVSS
VL: DIVMTQSPSSLSVSAGEKVTMSCKSSQSLLNSGNQKNSLAWYQQKPGRPPTLLISGASTRESGVPDRFTGSGSGTDFTLTISSVQAEDLAVYYCQNDHSFPLTFGAGTKLELKR
B2: HC1LC3 (antibody, human IgG1, kappa, V domains shown)
VH: QVQLVQSGAEVKKPGATVKISCKVSGYIFTNNDMNWVQQAPGKGLEWMGGIDPGDGRTKYNEKFKGRVTITADESTSTAYMELSSLRSEDTAVYYCGRGGYEFGIDYWGQGTLVTVSS
VL: DIVMTQSPDSLAVSLGERATINCKSSQSLLNSGNQKNSLAWYQQRPGHPPKLLLYGASTRESGVPDRFSGSGSGTDFTLTISSLQAEDVAVYYCQNDHSFPLTFGGGTKVEIKR
B3: HC2LC3 (antibody, human IgG1, kappa, V domains shown)
VH: QVQLVQSGAEVKKPGASVKVSCKASGYIFTNNDMNWVRQAPGQGLEWMGGIDPGDGRTKYNEKFKGRVTMTRDTSTNTVYMELSSLTSEDTAVYFCGRGGYEFGIDYWGQGTTVTVSS
VL: B2 VL
B4: HC3LC3 (antibody, human IgG1, kappa, V domains shown)
VH: QVQLVQSGAEVKKPGSSVKVSCKSSGYIFTNNDMNWVRQAPGQGLDWMGGIDPGDGRTKYNEKFKGRVTISADIFSNTAYMELNSLTSEDTAVYFCGRGGYEFGIDYWGQGTTVTVSS
VL: B2 VL
B5: HC4LC3 (antibody, human IgG1, kappa, V domains shown)
VH: B3 VH with Q6E, A24V, Q43E, R72E, N77D, V79A, T87R, F95Y
VL: B2 VL

Biological target: TRAILshort (UniProt P50591)
Test: SPR

Chain of TRAILshort (P50591 other isoform, or with tags, fused parts or gaps): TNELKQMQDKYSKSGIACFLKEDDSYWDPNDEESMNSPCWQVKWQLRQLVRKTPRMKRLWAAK

Binder | Kd [pM]
B1 | 3
B2 | 10
B3 | 3.8
B4 | 4.5
B5 | 31
